Laboratory results: US8703143 (PHILOGEN S P A, dated 2014)
Changes are numbered by the printed parent chain. Blank lines part the entries; values can stand above or below the binder they belong to.

Columns and labels:
[1] = target: T1, 85 kD thermolysin fragment of FN from WI38VA cells (human, UniProt P02751 722-1351, limits assumed); test: immunoblot
T1 construct: domain: 85 kD fragment spanning repeats 2-7 in addition to the N-terminus of ED-B; also called 85 kD fragment; 85 kD domain
Procedure: (§1) The antigens used for ELISA and immunoblotting were prepared as follows. FN was purified from human plasma and from the conditioned medium of the WI38VA13 cell line as previously reported (Zardi et al, 1987). Purified FNs were digested with thermolysin (protease type X; Sigma Chemical Co.) as reported by Carnemolla et al (1989). Native FN 110 kD (B−) and native FN 120 kD (B+) fragments (see FIG. 2) were purified from a FN digest as previously reported (Borsi et al, 1991). The large isoform of tenascin-C was purified as reported by Saginati et al (1992). Recombinant proteins were expressed and purified as described in Example 1. SDS-PAGE and Western blotting were carried out as described by Carnemolla et al (1989).
(§2) On the left hand side of FIG. 2B is a Coomassie stained gel of the protein fractions analysed by immunoblotting. Plasma FN (lane 1) and thermolysin digests of the protein (lane 3, containing the 110 kD protein, and lane 4, containing digested 110 kD protein) were not recognised by CGS-1 and CGS-2. In contrast, ED-B-rich FN from WI38VA cells, both intact (lane 2) and after increasing thermolysin digestion (lanes 5, 6 and 7) was recognised by both scFv fragments. […]

mouse B-FN = target: T2, mouse B-FN (mouse, UniProt P11276 33-2477, limits assumed); test: immunohistochemistry
T2 construct: also called mouse B+ fibronectin

[2] = target: T3, recombinant FN fragment 7B89 (human, UniProt P02751 1173-1537, limits assumed, biotinylated for BIAcore (sites not given)); test: BIAcore, monomeric scFv on immobilised antigen
T3 construct: domain: type III homology repeats 7B89; also called rec FN7B89; 78B9 [sic]
T3 sequence (P02751 other isoform, or with tags, fused parts or gaps limits assumed): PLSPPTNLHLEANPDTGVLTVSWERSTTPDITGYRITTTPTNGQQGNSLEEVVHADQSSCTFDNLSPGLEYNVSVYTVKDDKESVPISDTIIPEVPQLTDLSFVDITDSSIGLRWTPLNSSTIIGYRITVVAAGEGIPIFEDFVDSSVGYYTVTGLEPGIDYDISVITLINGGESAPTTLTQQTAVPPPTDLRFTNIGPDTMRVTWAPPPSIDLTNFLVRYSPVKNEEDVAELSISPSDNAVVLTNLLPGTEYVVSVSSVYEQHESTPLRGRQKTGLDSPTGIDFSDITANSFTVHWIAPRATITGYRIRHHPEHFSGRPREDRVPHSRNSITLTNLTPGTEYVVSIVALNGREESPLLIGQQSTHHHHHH
Procedure: (§3) Binding of monovalent scFv at various concentrations in the 0.1-1 μM range in PBS was measured on a BIAcore machine (Pharmacia Biosensor), using the following antigens: (i) 1000 Resonance Units (RU) of biotinylated recombinant FN fragment 7B89 immobilised on a streptavidin coated chip, which was bound specifically by 250 RU of scFv; (ii) 200 RU of recombinant ED-B, chemically immobilised at the N-terminal amino group, which was bound specifically by 600 RU of scFv; (iii) 3500 RU of ED-B-rich fibronectin WI38VA (see Example 3), which was bound specifically by 150 RU of scFv. Kinetic analysis of the data was performed according to the manufacturers' instructions. On the basis of qualitative BIAcore analysis of antibody-containing supernatants, one affinity-matured version of each scFv clone was selected: clone CGS-1 from selection with the 78B9 fragment and CGS-2 from selection with ED-B recombinant FN fragment. The association rate constants ($kon$) and dissociation rate constants ($koff$) are shown in Table 1, together with the calculated equilibrium dissociation constants (Kd) of both scFvs and the original clone 28SI. […] The improvement was due mainly to a slower kinetic dissociation constant (-10^-4 s^-1), as measured with monomeric antibody preparations (not shown).

[3] = target: T4, fibronectin purified from the conditioned medium of the SV40-transformed cell line WI38VA13 (human, UniProt P02751 32-2477); test: BIAcore, monomeric scFv on immobilised antigen
T4 construct: mature; Mixture of isoforms, most of them B+; also called FN WI38VA; WI38VA FN
T4 sequence (P02751 32-2477): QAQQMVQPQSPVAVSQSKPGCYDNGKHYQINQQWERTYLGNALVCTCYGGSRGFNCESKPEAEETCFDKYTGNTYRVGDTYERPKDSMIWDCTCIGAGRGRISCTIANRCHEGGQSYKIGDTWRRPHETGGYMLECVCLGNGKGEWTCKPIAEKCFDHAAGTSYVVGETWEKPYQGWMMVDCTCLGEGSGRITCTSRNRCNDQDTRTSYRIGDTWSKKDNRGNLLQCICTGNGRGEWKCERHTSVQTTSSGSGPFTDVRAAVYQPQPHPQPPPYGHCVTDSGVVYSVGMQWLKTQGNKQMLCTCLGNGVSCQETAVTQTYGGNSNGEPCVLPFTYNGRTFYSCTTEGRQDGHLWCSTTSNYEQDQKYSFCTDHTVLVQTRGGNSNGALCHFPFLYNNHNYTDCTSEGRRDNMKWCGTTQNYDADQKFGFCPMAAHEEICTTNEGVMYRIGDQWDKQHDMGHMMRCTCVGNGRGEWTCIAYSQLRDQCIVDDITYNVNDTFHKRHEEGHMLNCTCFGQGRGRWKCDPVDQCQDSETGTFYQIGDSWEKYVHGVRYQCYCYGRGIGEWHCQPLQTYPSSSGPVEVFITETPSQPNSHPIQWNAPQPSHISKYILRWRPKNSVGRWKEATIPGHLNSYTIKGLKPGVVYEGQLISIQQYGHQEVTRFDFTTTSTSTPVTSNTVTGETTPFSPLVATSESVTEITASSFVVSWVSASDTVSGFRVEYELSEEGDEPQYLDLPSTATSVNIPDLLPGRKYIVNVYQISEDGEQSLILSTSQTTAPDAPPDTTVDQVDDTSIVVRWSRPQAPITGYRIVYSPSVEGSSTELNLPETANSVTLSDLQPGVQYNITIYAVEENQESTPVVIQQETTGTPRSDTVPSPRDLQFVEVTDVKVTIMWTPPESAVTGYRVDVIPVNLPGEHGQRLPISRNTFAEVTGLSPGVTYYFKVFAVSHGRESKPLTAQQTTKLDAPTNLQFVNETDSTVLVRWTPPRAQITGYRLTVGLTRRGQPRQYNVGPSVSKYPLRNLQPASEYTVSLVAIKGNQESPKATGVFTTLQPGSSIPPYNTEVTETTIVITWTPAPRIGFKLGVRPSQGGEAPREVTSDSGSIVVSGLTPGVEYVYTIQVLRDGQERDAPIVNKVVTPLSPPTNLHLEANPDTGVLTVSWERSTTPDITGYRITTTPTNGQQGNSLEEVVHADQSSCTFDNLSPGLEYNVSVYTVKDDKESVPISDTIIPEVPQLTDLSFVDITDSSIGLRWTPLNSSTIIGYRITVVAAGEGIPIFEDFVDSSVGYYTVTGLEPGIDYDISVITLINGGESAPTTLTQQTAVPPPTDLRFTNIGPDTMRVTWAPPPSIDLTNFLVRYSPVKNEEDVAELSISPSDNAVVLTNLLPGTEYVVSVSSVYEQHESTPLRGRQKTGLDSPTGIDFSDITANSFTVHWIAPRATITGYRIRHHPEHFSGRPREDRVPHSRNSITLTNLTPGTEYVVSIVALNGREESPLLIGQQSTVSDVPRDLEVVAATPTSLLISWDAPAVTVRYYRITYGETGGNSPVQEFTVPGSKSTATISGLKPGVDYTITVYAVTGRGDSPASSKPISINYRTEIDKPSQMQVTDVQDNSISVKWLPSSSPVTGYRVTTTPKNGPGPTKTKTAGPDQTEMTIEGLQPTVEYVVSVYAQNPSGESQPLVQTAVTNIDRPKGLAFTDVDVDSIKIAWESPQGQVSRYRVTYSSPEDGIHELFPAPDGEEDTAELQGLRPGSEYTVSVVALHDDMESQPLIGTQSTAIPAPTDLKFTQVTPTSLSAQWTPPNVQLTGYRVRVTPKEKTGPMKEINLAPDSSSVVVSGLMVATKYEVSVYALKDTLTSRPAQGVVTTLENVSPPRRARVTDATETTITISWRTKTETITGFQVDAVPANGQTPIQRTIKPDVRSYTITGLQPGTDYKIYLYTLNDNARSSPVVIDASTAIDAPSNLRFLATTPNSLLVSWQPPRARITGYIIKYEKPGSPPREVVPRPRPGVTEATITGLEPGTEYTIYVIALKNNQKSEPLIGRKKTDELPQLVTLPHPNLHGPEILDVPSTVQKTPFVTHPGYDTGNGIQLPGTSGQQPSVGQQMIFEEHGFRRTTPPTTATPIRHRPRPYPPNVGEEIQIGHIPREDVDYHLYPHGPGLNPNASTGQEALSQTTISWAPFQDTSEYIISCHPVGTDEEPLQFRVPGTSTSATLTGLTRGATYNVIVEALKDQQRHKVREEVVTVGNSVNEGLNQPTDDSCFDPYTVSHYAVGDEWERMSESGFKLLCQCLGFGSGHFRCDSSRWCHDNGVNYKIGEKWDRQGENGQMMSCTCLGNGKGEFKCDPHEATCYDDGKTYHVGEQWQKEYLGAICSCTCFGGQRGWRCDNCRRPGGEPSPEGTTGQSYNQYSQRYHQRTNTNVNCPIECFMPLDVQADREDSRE
Procedure: as §3

[4] = target: T5, recombinant ED-B domain of human fibronectin with a carboxy terminal hexahistidine tag (human, UniProt P02751 1266-1356); test: BIAcore, monomeric scFv on immobilised antigen
T5 construct: domain: ED-B; In BIAcore chemically immobilised at the N-terminal amino group; also called rec ED-B; recombinant ED-B peptide
T5 sequence (P02751 other isoform, or with tags, fused parts or gaps limits assumed): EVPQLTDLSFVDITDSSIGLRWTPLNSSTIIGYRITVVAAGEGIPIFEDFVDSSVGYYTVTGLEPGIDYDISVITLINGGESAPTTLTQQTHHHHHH
Procedure: as §3

[5] = target: T6, native FN 110 kD (B-) thermolysin fragment (human, UniProt P02751-1 722-1630, limits assumed); test: ELISA
T6 construct: domain: thermolysin treated FN domain 4, without ED-B; also called 110 kD protein
T6 sequence (P02751 other isoform, or with tags, fused parts or gaps limits assumed): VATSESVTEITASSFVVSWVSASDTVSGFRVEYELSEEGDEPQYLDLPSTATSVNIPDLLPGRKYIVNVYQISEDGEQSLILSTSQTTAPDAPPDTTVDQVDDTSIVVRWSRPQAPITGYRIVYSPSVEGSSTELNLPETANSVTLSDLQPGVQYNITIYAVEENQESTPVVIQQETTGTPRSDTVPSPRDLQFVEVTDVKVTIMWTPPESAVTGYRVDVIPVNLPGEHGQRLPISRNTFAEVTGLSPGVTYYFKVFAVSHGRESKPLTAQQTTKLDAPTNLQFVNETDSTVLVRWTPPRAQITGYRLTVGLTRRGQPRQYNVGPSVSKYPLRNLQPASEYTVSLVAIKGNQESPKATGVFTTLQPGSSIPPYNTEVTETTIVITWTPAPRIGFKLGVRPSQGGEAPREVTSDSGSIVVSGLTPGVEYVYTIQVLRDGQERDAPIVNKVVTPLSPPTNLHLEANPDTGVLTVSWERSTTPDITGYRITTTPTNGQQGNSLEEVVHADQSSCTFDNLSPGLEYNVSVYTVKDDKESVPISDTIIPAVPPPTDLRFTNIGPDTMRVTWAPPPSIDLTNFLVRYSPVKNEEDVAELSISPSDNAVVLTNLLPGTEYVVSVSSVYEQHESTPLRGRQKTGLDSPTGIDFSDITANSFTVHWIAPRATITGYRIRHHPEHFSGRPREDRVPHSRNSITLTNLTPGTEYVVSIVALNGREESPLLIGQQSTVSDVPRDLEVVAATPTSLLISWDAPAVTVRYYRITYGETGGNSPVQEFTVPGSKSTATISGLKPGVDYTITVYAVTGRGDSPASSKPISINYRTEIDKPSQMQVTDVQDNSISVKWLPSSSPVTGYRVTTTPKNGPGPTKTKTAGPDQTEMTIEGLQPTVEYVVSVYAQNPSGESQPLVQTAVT

recombinant FN domain 6 [6] = target: T7, recombinant FN domain 6 (human, UniProt P02751 1086-1172, limits assumed); test: ELISA
T7 construct: domain: FN-6; also called rec FN-6; rec FN6
T7 sequence (P02751 other isoform, or with tags, fused parts or gaps limits assumed): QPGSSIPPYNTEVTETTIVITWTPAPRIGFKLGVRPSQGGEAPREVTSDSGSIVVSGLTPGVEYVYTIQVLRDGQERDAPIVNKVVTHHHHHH

[7] = target: T8, recombinant FN fragment 789 (human, UniProt P02751-1 1173-1446, limits assumed); test: immunoblot of recombinant FN proteins expressed in E. coli
T8 construct: domain: type III homology repeats 789; the text treats it as lacking ED-B; also called rec FN789
T8 sequence (P02751 other isoform, or with tags, fused parts or gaps limits assumed): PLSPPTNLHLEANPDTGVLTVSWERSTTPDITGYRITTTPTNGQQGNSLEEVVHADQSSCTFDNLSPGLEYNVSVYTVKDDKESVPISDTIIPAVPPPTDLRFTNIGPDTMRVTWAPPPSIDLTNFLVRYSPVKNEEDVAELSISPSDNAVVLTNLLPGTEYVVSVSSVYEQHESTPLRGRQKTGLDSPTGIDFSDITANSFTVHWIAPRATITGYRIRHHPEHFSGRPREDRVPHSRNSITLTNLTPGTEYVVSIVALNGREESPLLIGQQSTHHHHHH
Procedure: The fine specificity of CGS-1 and CGS-2 was investigated further by immunoblotting using recombinant FN fragments and fusion proteins with or without the ED-B sequence. The FN fusion proteins were prepared as described by Carnemolla et al (1989). The results of these experiments are shown in FIG. 3; for the association of the schematic diagram to the structure of the domains of human FN, see Carnemolla et al, 1992.

[8] = target: T3, recombinant FN fragment 7B89; test: ELISA on coated antigen, background subtracted
Procedure: (§4) All antigens used in ELISA were diluted in PBS to between 50-100 μg/ml and coated at 4° C. overnight onto Immuno-Plate wells (Nunc, Roskilde, Denmark). Unbound antigen was removed with PBS and plates were then blocked with PBS containing 3% (w/v) bovine serum albumin (BSA) for 2 h at 37° C. This was followed by four washes with PBS containing 0.05% Tween 20 (PBST). Antibodies were then allowed to bind at 37° C. for 1.5 h; scFvs were preincubated with an antiserum directed against the tag sequence: mAb M2 [Kodak, New Haven Conn.] for the FLAG tag or 9E10 [ATCC, Rockville, Md.] for the myc tag. Control antibodies tested were mAbs BC-1 and IST-6. After four washes with PBST, the plates were incubated for 1 h at 37° C. with 1:2000 diluted (in PBST+3% BSA) biotinylated goat anti-mouse IgG (Bio-SPA Division, Milan, Italy). The washes were repeated and Streptavidin-biotinylated alkaline phosphatase complex (Bio-SPA Division, Milan, Italy) was added (1:800 diluted in PBST containing 2 mM MgCl2) for 1 h at 37° C. The reaction was developed using Phosphatase substrate tablets (Sigma) in 10% diethanolamine, pH 9.8 and the optical density was read at 405 nm.

[9] = target: T6, native FN 110 kD (B-) thermolysin …; test: ELISA on coated antigen, background subtracted
Procedure: as §4

[10] = target: T9, native FN 120 kD (B+) thermolysin fragment (human, UniProt P02751 722-1721, limits assumed); test: ELISA on coated antigen, background subtracted
T9 construct: domain: thermolysin treated FN domain 4, containing ED-B; also called 120 kD protein; 120 kD domain
Procedure: as §4

[11] = target: T8, recombinant FN fragment 789; test: ELISA on coated antigen, background subtracted
Procedure: as §4

recombinant FN domain 6 [12] = target: T7, recombinant FN domain 6; test: ELISA on coated antigen, background subtracted
Procedure: as §4

[13] = target: T4, fibronectin purified from the …; test: ELISA on coated antigen, background subtracted
Procedure: as §4

[14] = target: T5, recombinant ED-B domain of human …; test: ELISA on coated antigen, background subtracted
Procedure: as §4

[15] = target: T3, recombinant FN fragment 7B89; test: BIAcore, monomeric scFv on immobilised antigen; Kd = koff/kon
Procedure: as §3

[16] = target: T4, fibronectin purified from the …; test: as above
Procedure: as §3

[17] = target: T5, recombinant ED-B domain of human …; test: as above
Procedure: as §3

[18] = target: T6, native FN 110 kD (B-) thermolysin …; test: immunoblot
Procedure: as §1, §2

chicken B-FN = target: T10, chicken B-FN (chicken, UniProt P11722 22-2483, limits assumed); test: immunohistochemistry
T10 construct: also called chicken B+ fibronectin

T1 sequence (P02751 722-1351 limits assumed): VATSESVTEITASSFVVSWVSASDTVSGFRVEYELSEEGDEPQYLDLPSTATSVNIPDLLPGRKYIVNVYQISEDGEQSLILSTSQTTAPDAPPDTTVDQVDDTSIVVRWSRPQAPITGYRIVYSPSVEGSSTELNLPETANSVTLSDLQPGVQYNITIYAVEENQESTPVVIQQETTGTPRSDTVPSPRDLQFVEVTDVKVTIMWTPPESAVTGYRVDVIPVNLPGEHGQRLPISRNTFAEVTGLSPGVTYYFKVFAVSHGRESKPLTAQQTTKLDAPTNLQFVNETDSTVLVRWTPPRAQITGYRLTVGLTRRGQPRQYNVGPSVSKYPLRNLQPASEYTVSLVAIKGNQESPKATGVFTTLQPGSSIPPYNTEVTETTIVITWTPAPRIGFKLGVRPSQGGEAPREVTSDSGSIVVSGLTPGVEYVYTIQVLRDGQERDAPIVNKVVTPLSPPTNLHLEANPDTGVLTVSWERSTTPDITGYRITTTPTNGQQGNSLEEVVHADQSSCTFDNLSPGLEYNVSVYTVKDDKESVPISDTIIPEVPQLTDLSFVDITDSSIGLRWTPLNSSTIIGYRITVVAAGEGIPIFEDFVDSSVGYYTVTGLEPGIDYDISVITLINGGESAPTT

binding result [1]: no binding | binding result (mouse B-FN): binds | koff [2]: 0.0039 s⁻¹ | kon [2]: 110000 M⁻¹ s⁻¹ | koff [3]: 0.005 s⁻¹ | kon [3]: 410000 M⁻¹ s⁻¹ | koff [4]: 0.007 s⁻¹ | kon [4]: 130000 M⁻¹ s⁻¹ | binding result [5]: no binding | binding result (recombinant FN domain 6 [6]): no binding | binding result [7]: no binding | OD at 405 nm [8]: 1.11 OD 405 nm | OD at 405 nm [9]: 0.03 OD 405 nm | OD at 405 nm [10]: 0.82 OD 405 nm | OD at 405 nm [11]: 0.01 OD 405 nm | OD at 405 nm (recombinant FN domain 6 [12]): 0.01 OD 405 nm | OD at 405 nm [13]: 1.16 OD 405 nm | OD at 405 nm [14]: 1.21 OD 405 nm | Kd [15]: 35 nM | Kd [16]: 12 nM | Kd [17]: 54 nM
B1: scFv CGS-1 (scFv, V domains shown)
VH: QVQLVESGGGLVQPGGSLRLSCAVSGFTFSSYAMSWVRQAPGKGLEWVSAISGSGGSTYYADSVKGRFTISRDNSKNTLYLQMNSLRAEDTAVYYCARSLPKWGQGTLVTVSR
VL: SSELTQDPAVSVALGQTVRITCQGDSLRSYYASWYQQKPGQAPVLVTYGKNNRPSGIPDRFSGSSSGNTASLTITGAQAEDEADYYCNSSPVVLNGVVFGGGTKLTVL
notes: claims 6 and 8 say that 8 is a VH and 10 a VL; VH-linker-VL order follows from the cloning primers; Monomeric, FPLC-purified, in BIAcore; in the ELISA detected through a FLAG or myc tag

binding result [18]: no binding | binding result (mouse B-FN): binds | binding result (chicken B-FN): binds | koff [2]: 0.00023 s⁻¹ | kon [2]: 110000 M⁻¹ s⁻¹ | koff [3]: 0.00065 s⁻¹ | kon [3]: 290000 M⁻¹ s⁻¹ | koff [4]: 0.00015 s⁻¹ | kon [4]: 130000 M⁻¹ s⁻¹ | binding result (recombinant FN domain 6 [6]): no binding | binding result [7]: no binding | OD at 405 nm [8]: 1.02 OD 405 nm | OD at 405 nm [9]: 0.01 OD 405 nm | OD at 405 nm [10]: 0.81 OD 405 nm | OD at 405 nm [11]: 0.01 OD 405 nm | OD at 405 nm (recombinant FN domain 6 [12]): 0.01 OD 405 nm | OD at 405 nm [13]: 0.72 OD 405 nm | OD at 405 nm [14]: 1.32 OD 405 nm | Kd [15]: 2.1 nM | Kd [16]: 2.4 nM | Kd [17]: 1.1 nM
B2: scFv CGS-2 (scFv, V domains shown)
VH: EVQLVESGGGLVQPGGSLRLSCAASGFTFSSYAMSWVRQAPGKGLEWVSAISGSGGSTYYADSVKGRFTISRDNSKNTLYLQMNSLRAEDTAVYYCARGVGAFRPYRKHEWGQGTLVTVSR
VL: B1 VL with T47I, I74T, V92F, V93E, L94H, G96L
notes: claims 7 and 9 say that 9 is a VH and 11 a VL; Monomeric, FPLC-purified, in BIAcore
